Test system: K4 kissing-loop RNA reporter
Test: apparent KD of K4 kissing-loop reporter; higher = weaker reporter binding
Conditions: Eterna round: R107; input ligand: FMN 200 uM
Method: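 RNA-MaP round R107: designed RNA switches with theophylline, tryptophan, arginine or FMN aptamers are transcribed on-chip within common flanks. They are titrated with a labelled K4 kissing-loop RNA reporter in RNA-MaP buffer (100 mM Tris pH 7.5, 80 mM KCl, 4 mM MgCl2), without ligand or with the indicated ligand. Median apparent KD per design.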
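Also: bound reporter read as fluorescence of individual clusters on recovered sequencing chips by microscopy, with normalized cluster intensities fitted with a binding model.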

| Sequence | apparent KD of K4 kissing-loop reporter [nM] |
| --- | --- |
| AACACUCUGGGAGUGAUGUUCUCAAAUAACCGAGGACCGGUACGGCCGCCACUCGGAAAAGAGUGAGUCCUACGAAAAGUAGGAC [Omei inspired 3] | 225 |
| AUAGAAAAGUGGCACCCUCACUAAAACAGUCGAGGACCGGUACGGCCGCCACUCGCGCGCUUUAGUGAUGUUAAAGCUAGGCGGA | 269 |
| GGACGACAGUCGGCCGCCACUCACAGCCGCCAGUGAUGUUGGAUUGUAGCGGAGUGAUGUUUCGCGAGGACCGGGACUGCAGUCC [Same State Tryptophan B GF 15] | 417 |
| AAGCCAGUGAUGUUGGCAAAAUAAACUGAAGGAGCGCGUGAAAACGCAGGUAGGUCGCAGAACCUUGCCAACUAACACGAAAGUG [Ex Arginine A K4 19] | 268 |
| UGCGCUGUGUACUGAAAUGUCCUGCGGGAUACCAGAGUCUUUUUAUUCCCUUGGCAGCUUGAGUGAUGUUUGAUGCCGUUCUUGU [frrgmullin] | 786 |
| GCGGUGUUAUGCCCGAGGGUAUAGUUGCCAAAGGAUAUGAUUGUUGUCAGAAGGUUGCGCUUGAUCAGUGAUGUUGGUCUCCAAC [theeternabot_sameState_KL_FMN_A_12] | 398 |
| UGACAUUGCUCAGAUACCAGACCUGAGGAUCACCCUGGUGCCAAACGUACAAUAAUAAAUGUCCCUUGGCAGCUGAGCAAUGUCU [TheoBX 14] | 77.8 |
| AUUUUCAUUUUAUUAUAUAACUUUUCAGAAGGAGCGUGGAAGUUCACAGGUAGGUCGCUGAAUAUUGGACUAGUGAUGUUAGUUA [JR_Nu_SSArginiA_Sub022] | 202 |
| GUUACGCAUGGAAGGAGCGCUCUCCGGUUGAUCGACACAGUGAUGUUGUGGUUCUACCGUAAGCAGGUAGGUCGCCAUGUGUAAC [Ex Arginine B K4 14] | 730 |
| AAAUCGUUCAGAAGGAGCGUGGAUUAUUCUUAAAUAUUUAUUACGAGUGAUGUUCGUAAUUCACAGGUAGGUCGCUGAUCGAUAA [JR_ExcArginiB_Sub003] | 102 |
| GGUGCUGUCUGUGCCGCCCUCCUCGUUCCUCGAGGACCGGUACGGCCGCCACUCGAGUGAUGUUCGGGUAGCGAUCCCUGCUAGC [Bdazzled - #17 Exc. Tryptophan A] | 221 |
| AAACAGCACUGGGAGUGAUGUUCUCAGUGACGAGGACCGGUACGGCCGCCACUCGCGAGAGAACUAGUCUAGACUUGACUGCAUA [Excl Tryptophan A V15] | 181 |
| GGAUAGGACAGAGGAUAUGGUAGUGAUGUUACCAACAGCCUACUGUCAAUAAAGACGGUUGGCUGACCAGAAGGCUGUCCUAUCG [Mod of Eli's FmnBX 26 v1] | 564 |
| ACCAUCAAAGAUGGCCAGGACUCAACUGAUACCAGAGUGGAGACACUCCCUUGGCAGCAGGUGAGUGAUGUUCACGAGUCCUGGA [Omel KL Theo A SS B v9] | 1000 |
| AGGUUUUGAUCAGGAUAUGCAUUGACGAUGAGAAUAUAGUGAUGUUAUAUACUACGAAUUAGUAAAGUAGAAGGGAUUGAGGUUU [SSFMNB.aB] | 747 |
| UUUUAAAUGUCUGAUACCAGAGAAAAUUUAUGUAGUGAUGUUAUAUACAAAUUAAAUAAGCUCCCUUGGCAGCAGUAUUAAUUUU [AstrosExc-TheB#9] | 583 |

Same assay, conditions: Eterna round: R107; input ligand: arginine 13.2 mM

| Sequence | apparent KD of K4 kissing-loop reporter [nM] |
| --- | --- |
| GUAUCGCUAGGAGGAUAUUUCAAAUAAUAAAUAAAUGGAUAUUCGGAGUGAUGUUCCGAUUUACGGAAAGAAGGCCUAGUGAUAC [FMN B 2] | 143 |
| AAACAUCACUGGGAGUGAUGUUCUCAGUGACGAGGACCGGUACGGCCGCCACUCGCGAGAGAUAUAAUUAAGUAAUGACAUCAUU [Excl Tryptophan A V6] | 267 |
| ACCUAGUAGACAGGAUAUCACCAUGACAGUGAUGUUGUCAUGCUCGAUUUGAGGAAACUCAGAUCGUGAGAAGGGUCUAACGACU [FMN B SS t7] | 149 |
| CCUAUCUCAUACGAUACCAGUGAAUUUAUAUUUAUUAGCAGUGAUGUUGCAUUCCAAGUACACCCUUGGCAGCGUAUGGGAUAGG [Ex Theophylline B K4 22] | 204 |
| UCCUAGGCUCGAAAGAGCCUAGGAUUGACUCAGGAUAUCCGGAAACGGAGAAGGGAGUCACUAGUGAUGUUAGGGAUUCCCUAUU | 91.2 |
| GGAUAGGACAGAGGAUAUCUCUGAGGCAAGAAAACUUGUCUCAAAAGAGAUGACUCAGUGAUGUUGAGAGAAGGCUGUCCUAUCG [FmnBX 8 - #SwitchBubble #StaticStem] | 143 |
| GGGCCUAUUGAUGCUGGAGCAAUUCUGGAAGGAGCGCUCAAAGGAGCAGGUAGGUCGCCAGUAUGCAAGGGCAGUGAUGUUGCCC [Ersoarxe] | 164 |
| UGGAUGUAGUGAUGUUAUAUAGAGAGUGAUACCAGUUUAGAGAAGAACCCUUGGCAGCAUAGAAGAGUAUCAUUGGAGAAGAAUG [ExTheophyl.Ar] | 347 |
| UUAGCCUAGCCAUAGUGAUGUUGUGGAAUACGAGGACCGGUACGGCCGCCACUCGCUCGACGGUGAUGACAUCAACGACCUUUAU [theeternabot_sameState_KL_Trp_A_38] | 304 |
| AGUACGGACGCGGCCGCCACUCAGGAGAAGAAGGUAGUGAUGUUGCUUAUGGAGAGAUCAAUCAAGAGGACCGGGUGCCGUGCAA [#07 K4 Tryptophan B Same State] | 340 |

From the supplement of paper PMC9170038
